Laboratory results published in patent publication US9181340B2, “TEM8 antibodies, conjugates thereof, and their use” (The United States of America, as represented by the …, priority 2011, dated 2015).

B1: L5-mIgG2a: mouse/human chimeric anti-TEM8 IgG: human L5 variable domains fused with mouse IgG2a constant domains (antibody, V domains shown)
VH: QVQLVESGGGLVQPGGSLRLSCAASGFTFNSYGLSWVRQAPGKGLEWVSNISSNGSYTYYADSVKGRFTISRDNSKNTLYLQMNSLRAEDTAVYYCARAGYGLFDVWGQGTLVTVSSVL
VL: DIELTQPPSVSVAPGQTARISCSGDKLREYYVHWYQQKPGQAPVLVIYGDNKRPSGIPERFSGSNSGNTATLTISGTQAEDEADYYCSSWAGSRSGTVFGGGTKLTVL

Columns and labels:
[1] = tested on: NCI-H460 tumors; experiment: NCI-H460 lung cancer xenograft in nude mice; assay type: in vivo, mouse; conditions: L2-mIgG2a 20 mg/kg 3 times per week; DMXAA 25 mg/kg then 5 mg/kg/day for two days; tumors 100 mm^3
[2] = tested on: CHO-TEM8 cells treated with lethal toxin; assay type: cell-based, Chinese Hamster
[3] = target: human TEM8 (CHO-TEM8) (Homo sapiens, UniProt Q9H6X2); experiment: Flow cytometry staining of CHO-TEM8 cells; assay type: binding
Method: (§1) Trypsinized cells were rinsed in cold PBS/0.5% BSA (PBS/BSA) and labeled with anti-TEM8 Fabs (human) or full IgG (human-mouse) primary antibodies in PBS/BSA containing 10% goat serum at 4° C. Cells were rinsed with PBS/BSA and incubated with FITC-conjugated goat anti-human Fab or anti-mouse IgG secondary antibodies (Jackson Immunoresearch, West Grove, Pa.), rinsed again, and analyzed on a FACScalibur flow cytometer (Becton Dickinson, Franklin Lakes, N.J.) using CellQuest™ Software.

[4] = target: CMG2 (CHO-CMG2) (Homo sapiens, UniProt P58335); experiment: Flow cytometry staining of CHO-CMG2 cells; assay type: binding; conditions: CMG2 transfectants of CHO/PR230
Method: as §1

[5] = tested on: HCT-116 tumors; experiment: HCT-116 colon xenograft in nude mice; conditions: treatment 3 times per week from 50 mm^3
[6] = tested on: UACC human melanoma xenografts; experiment: UACC melanoma xenograft in nude mice; assay type: in vivo, mouse; conditions: dose-escalation study, 15 mg/kg 3× per week

human TEM8 (CHO-TEM8), sequence (Q9H6X2 33-564): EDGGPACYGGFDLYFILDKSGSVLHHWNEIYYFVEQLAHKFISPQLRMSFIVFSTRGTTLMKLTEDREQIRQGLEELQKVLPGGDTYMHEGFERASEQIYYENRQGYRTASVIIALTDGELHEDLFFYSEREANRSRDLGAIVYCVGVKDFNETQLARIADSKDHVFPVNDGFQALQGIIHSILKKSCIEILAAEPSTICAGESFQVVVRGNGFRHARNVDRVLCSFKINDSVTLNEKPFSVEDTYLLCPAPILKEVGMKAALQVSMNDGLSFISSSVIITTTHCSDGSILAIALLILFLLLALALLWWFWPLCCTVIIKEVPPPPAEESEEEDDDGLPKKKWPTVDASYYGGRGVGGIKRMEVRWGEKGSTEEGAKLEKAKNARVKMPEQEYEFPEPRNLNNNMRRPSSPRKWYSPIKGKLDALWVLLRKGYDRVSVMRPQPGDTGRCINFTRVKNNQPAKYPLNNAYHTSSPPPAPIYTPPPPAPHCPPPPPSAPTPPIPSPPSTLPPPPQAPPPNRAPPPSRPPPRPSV
CMG2 (CHO-CMG2), sequence (P58335 34-489, species assumed): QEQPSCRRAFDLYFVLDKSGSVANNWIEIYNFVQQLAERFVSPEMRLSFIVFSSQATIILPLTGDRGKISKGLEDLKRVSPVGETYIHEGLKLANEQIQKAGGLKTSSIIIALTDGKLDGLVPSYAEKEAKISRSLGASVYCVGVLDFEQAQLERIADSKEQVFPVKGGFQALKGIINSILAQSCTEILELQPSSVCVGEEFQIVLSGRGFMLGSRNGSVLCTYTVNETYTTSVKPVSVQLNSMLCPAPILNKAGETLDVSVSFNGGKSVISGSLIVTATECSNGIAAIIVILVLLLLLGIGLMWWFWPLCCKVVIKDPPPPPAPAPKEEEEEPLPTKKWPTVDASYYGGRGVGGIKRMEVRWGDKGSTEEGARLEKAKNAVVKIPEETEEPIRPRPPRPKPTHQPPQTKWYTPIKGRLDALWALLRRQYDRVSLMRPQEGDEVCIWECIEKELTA

Molecule	NCI-H460 tumor growth [1]	EC50 of protection from lethal toxin toxicity [2]	staining of CHO-TEM8 cells [3]	reactivity with CMG2 [4]	HCT-116 tumor growth [5]	UACC tumor growth inhibition at 15 mg/kg [6]
Cc1ccc2c(=O)c3cccc(CC(=O)O)c3oc2c1C [DMXAA, 5,6-dimethylxanthenone-4-acetic acid, reference compound]	significantly delayed tumor growth					
B1		2.575 µg/mL	stained	failed to react with CMG2	inhibited HCT-116 tumor growth	partial growth inhibition
